In patent publication US20240270814A1 (published 2024):
Substitutions are numbered along the chain they refer to. One block for each binder: values may come before it.

How the values were obtained:
Experiment in all cases: activation reporter or marker
[1] = biological target: T1, p53 R248W peptide on HLA-A*68:01 (human)
T1 peptide: SSCMGGMNWR

[2] = biological target: T2, p53 wild type (Y220) peptide on HLA-DRB1*04:01 (human)
T2 peptide: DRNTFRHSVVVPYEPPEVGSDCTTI

[3] = biological target: T3, p53 Y220C peptide on HLA-DRB1*04:01 (human)
T3 peptide: RNTFRHSVVVPCE

binding result [1]: recognises
B1: 4266-TCR3 (TCR, V domains shown)
Valpha: GQNIDQPTEMTATEGAIVQINCTYQTSGFNGLFWYQQHAGEAPTFLSYNVLDGLEEKGRFSSFLSRSKGYSYLLLKELQMKDSASYLCAFYYGGSQGNLIFGKGTKLSVKP
Vbeta: GAGVSQSPRYKVAKRGQDVALRCDPISGHVSLFWYQQALGQGPEFLTYFQNEAQLDKSGLPSDRFFAERPEGSVSTLKIQRTQQEDSAVYLCASSFGSGSTDTQYFGPGTRLTVL

binding result [2]: no recognition
binding result [3]: recognises
B2: 4259-F6-TCR (TCR, V domains shown)
Valpha: QKEVEQNSGPLSVPEGAIASLNCTYSDRGSQSFFWYRQYSGKSPELIMFIYSNGDKEDGRFTAQLNKASQYVSLLIRDSQPSDSATYLCAWNSGGSNYKLTFGKGTLLTVNP
Vbeta: NAGVTQTPKFRVLKTGQSMTLLCAQDMNHEYMYWYRQDPGMGLRLIHYSVGEGTTAKGEVPDGYNVSRLKKQNFLLGLESAAPSQTSVYFCASSYSQAWGQPQHFGDGTRLSIL

binding result [1]: recognises
B3: 4266-TCR2 (TCR, V domains shown)
Valpha: GQNIDQPTEMTATEGAIVQINCTYQTSGFNGLFWYQQHAGEAPTFLSYNVLDGLEEKGRFSSFLSRSKGYSYLLLKELQMKDSASYLCAVYTGGFKTIFGAGTRLFVKA
Vbeta: EAGVAQSPRYKIIEKRQSVAFWCNPISGHATLYWYQQILGQGPKLLIQFQNNGVVDDSQLPKDRFSAERLKGVDSTLKIQPAKLEDSAVYLCASNLGGGSTDTQYFGPGTRLTVL

binding result [1]: recognises
B4: 4266-TCR4 (TCR, V domains shown)
Valpha: B1 Valpha with F90V, Y92P
Vbeta: B3 Vbeta with N95S, G98T
